The values below come from patent US20250197889A1.

For the test, the target named is humanized Nme2Cas9 expressed in HEK293T cells from a plasmid (Neisseria meningitidis strain De11444 (also printed De10444)). The experiment in a line: cell-based or functional assay.

Consider AcrIIC4Hpa, for which the fold decrease in genome editing in HEK293T cells at various ratios of Acr to Cas9 plasmid is 4 fold.
